Measurements as given in patent US20170121416A1 (AbbVie / Abbott, published 2017).
Where two headings read alike, the source gives them in different places.

T1: human CD324 on cells (MCF7, BR22, NTX tumor cells, 293-hCD324) (human, UniProt P12830 155-882)
T1 sequence: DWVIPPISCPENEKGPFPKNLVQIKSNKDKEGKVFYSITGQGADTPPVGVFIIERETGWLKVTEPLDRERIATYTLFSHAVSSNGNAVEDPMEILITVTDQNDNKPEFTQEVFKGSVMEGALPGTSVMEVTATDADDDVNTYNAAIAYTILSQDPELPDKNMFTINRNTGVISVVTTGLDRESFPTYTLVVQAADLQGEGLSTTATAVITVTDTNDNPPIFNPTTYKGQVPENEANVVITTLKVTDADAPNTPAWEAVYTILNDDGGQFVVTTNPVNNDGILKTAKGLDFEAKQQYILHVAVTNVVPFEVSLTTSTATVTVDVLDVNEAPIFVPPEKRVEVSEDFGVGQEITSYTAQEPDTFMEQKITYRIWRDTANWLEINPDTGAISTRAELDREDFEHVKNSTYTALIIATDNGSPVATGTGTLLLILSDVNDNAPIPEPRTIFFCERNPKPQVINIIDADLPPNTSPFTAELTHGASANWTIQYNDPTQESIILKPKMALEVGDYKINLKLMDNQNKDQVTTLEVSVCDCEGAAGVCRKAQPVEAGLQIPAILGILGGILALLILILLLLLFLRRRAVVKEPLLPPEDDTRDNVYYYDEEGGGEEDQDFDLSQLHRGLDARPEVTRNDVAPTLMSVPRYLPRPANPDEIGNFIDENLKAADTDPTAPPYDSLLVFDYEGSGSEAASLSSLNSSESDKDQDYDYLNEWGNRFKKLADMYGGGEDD

T2: mouse CD324 (Sino Biologics) (mouse, UniProt P09803 157-709, limits assumed)
T2 construct: bought recombinant protein coated on the ELISA plate; also called murine CD324; mouse homolog
T2 sequence (looked up): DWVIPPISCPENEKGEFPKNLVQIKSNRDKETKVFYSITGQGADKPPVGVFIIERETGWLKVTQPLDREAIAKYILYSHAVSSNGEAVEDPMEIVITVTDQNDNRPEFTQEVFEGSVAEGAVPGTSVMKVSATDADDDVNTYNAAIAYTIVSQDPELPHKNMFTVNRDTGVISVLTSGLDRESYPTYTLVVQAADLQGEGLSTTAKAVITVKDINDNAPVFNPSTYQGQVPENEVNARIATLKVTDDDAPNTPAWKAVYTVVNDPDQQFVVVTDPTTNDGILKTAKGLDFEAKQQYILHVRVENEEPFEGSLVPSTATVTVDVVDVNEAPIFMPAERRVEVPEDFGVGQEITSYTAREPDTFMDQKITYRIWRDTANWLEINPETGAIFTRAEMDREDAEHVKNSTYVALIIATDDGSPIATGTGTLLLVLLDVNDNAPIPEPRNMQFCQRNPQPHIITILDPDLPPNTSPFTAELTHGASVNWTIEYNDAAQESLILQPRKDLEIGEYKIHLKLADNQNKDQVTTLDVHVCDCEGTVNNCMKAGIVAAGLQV

T3: human CD324-His recombinant protein (Sino Biological, Inc.) (human, UniProt P12830 155-709)
T3 construct: bought soluble protein; The antigen of the Biacore experiment is only called human CD324 antigen; also called hCD324-His; human CD324 antigen; not shown: His tag
T3 sequence: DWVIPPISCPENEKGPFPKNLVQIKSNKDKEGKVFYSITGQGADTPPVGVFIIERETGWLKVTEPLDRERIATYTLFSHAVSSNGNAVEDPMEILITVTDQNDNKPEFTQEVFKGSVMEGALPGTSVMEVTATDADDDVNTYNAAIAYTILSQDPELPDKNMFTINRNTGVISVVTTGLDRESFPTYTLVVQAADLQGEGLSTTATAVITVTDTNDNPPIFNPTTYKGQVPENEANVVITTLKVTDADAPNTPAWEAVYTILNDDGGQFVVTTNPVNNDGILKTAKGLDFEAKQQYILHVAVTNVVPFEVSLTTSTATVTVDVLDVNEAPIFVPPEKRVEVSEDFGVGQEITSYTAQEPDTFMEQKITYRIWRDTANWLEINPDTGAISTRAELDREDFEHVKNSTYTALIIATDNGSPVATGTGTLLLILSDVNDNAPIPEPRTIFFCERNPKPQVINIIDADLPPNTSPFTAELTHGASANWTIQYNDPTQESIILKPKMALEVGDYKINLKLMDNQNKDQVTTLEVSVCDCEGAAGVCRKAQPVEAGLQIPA

B1: SC10.168 (antibody, V domains shown)
VH: SDVQLQESGPGLVKPSQSLSVTCTVTDYSLTSGYYWNWIRQFPGNKLEWMAYIHSSGSTHYNPSLKSRISVTRDTSKNQFFLQLNSVTTEDTATYYCARDGAYYSSWFPYWGQGTLVTVSA
VL: DIVMTQSHKLMSASVGDRVSITCKASQDVGTAVAWYQQKPGRSPKLLIYWASNRHTGVPDRFTGSGSGTDFTLTISNVQSEDLADYFCQQFGSYPYTFGGGTKLEIKR
B2: SC10.38 (antibody, V domains shown)
VH: QVQLQQSGAELMKTGASVKISCKATGYTFSSYWIEWVKQRPGHGLEWIGEILPGSGKTNYNENFKGKATFTADTSSNTAYMQLSSLTSEDSVVYYCARRGAYYGNFDYWGQGTTLTVSS
VL: DIQMNQSPSSLSASLGDTITITCHVSQNINVWLTWYQQKPGNIPKLLLYKASNLQTGVPSRFSGSGSGTGFTLTISSLQPEDIATYYCQQGQSYPFTFGSGTK
B3: SC10.35 (antibody, V domains shown)
VH: SDVQLQESGPGLVKPSQSLSLTCTVTDYSITSDYAWNWIRQFPGNNLEWMGNIGYSGDTSYNPSLKSRISITRDTSKNQFFLQLNSVTTEDSATYYCARSSLGPFDYWGQGTALTVSS
VL: QIVLTQSPAIMSASPGERVTLTCSASSSVSSSFLYWYQQKSGSSPKLWIYSTSTLASGVPARFSGSGSGTSYSLTISSMEAEDAASYFCHQWSSYPWTFGGGTKLEIK
B4: SC10.163 (antibody, V domains shown)
VH: EVQLQQSGPELVKPGDSVKMSCKASGNTVTNYYMDWVKQSHGKSLEWIGYIYANNGGTSYNQKFKGKATLTVDKSSSTAYMEIHSLTSEDSAVYYCAIYYRYEFAYWGQGTLVTVSA
VL: DIVMTQAAFSNPVTLGTSASISCRSSKSLLHSNGITYLYWYLQKPGQSPQLLIYQMSNLASGVPDRFSNSGSGTDFTLRISRVEAEDVGVYYCAQNLELPWTFGGGTKLEIK
B5: SC10.75 (antibody, V domains shown)
VH: QVQLKESGPGLVAPSQSLSITCTVTGFSLSRYSVHWIRQPPGKGLEWLGMIWGGGSTDYNSALKSRLSINKDNSKSQVFLKMNSLQTVDTAMYYCARTQFYYGHDGGYAMDYWGQGTSVTVSS
VL: DIVMSQSPSSLAVSVGEKVTMSCKSSQSLLYSNNQKNYLAWYQQKPGQSPKLLIYWASSRESGVPERFTGSGSGTDFTLTISSVKAEDLAVYYCQQYYSSPYTFGGGTKLK
notes: murine mAb; variable regions only
B6: SC10.17 (antibody, V domains shown)
VH: DVQLVESGGGLVQPGGSRKLSCAASGFTFSSYGMHWVRQAPETGLEWVAYITTRSSTIYYAATVKGRFTISRDNARNTLFLQMTSLRSEDTAMYYCTREPLTGYYAMDYWGQGTSVTVSS
VL: DVLMTQTPLSLPVSLGDQASISCRSSQSIVHSDGNTYLEWYLRKPGQSPRLLIYKVSNRFSGVPDRFSGSGSGTDFTLKISRVEAEDLGVYYCFQGSHAPWTFGGGTKLEIK
notes: murine monoclonal antibody from hybridoma; also called murine SC10.17; mAb SC10.17
B7: SC10.36 (antibody, V domains shown)
VH: QVQLQQSGNELVRPGSAVKISCKASGYAFSSYWMNWVKQRPGQGLEWIGQIYPGDDDSNYNGKFKGKATLTADKSSSSAYMHLSSLTSEDSAVYFCARGFATPTMDYWGQGTSVTVSS
VL: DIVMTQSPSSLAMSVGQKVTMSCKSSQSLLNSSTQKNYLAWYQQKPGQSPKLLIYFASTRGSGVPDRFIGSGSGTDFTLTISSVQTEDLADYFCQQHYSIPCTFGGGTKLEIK
B8: SC10.178 (antibody, V domains shown)
VH: QILLVQSGPELKKPGETVKISCKANYTFTDYGMHWVKQAPGKGLKWMGWINPKTGVASYADDFKGRFAFSLETSASTAYLQINNLENEDTSIYFCARFFDYWGQGTTLTVSS
VL: DIVLTQSPLSLLVSLGDQASISCRSSQSLVHSNGNTYLHWYLQKPGQSPNLLIFKVSNRFSGVPDRFSGSGSGTDFTLRISRVEAEDLGVYFCSQTTHVWTFGGGTKLEIK

Assays:
[1] = target: T1, human CD324 on cells (MCF7, BR22, NTX …); assay: cell-based or functional assay
[2] = target: T1, human CD324 on cells (MCF7, BR22, NTX …); assay: cell-based or functional assay; remark: listed apart in the source
[3] = target: T1, human CD324 on cells (MCF7, BR22, NTX …); assay: cell-based or functional assay; remark: listed apart in the source
[4] = target: T2, mouse CD324 (Sino Biologics); assay: direct ELISA on plate-coated mouse CD324 (Example 7, paragraph 375; paragraph 370 names ForteBio)
Experimental: To test cross-reactivity a high protein binding 96-well assay plate was coated with 0.5 μg/ml of a mouse CD324 purchased from Sino Biologics. The protein coating of the plate occurred in 100 μl volume per well using a 50 mM Sodium Carbonate buffer (pH9.6) during a 16 hour incubation at 4° C. After washing the coated plate in PBS buffer containing 0.05% Tween20 (PBST) the plate was then clocked washed with PBST and 100 μL/well PBSA containing 10% spent hybridoma supernatant or 1 μg/ml purified monoclonal antibody (as positive control) was added to the plate for the duration of 1 hour at ambient temperature. After washing the plate with PBST, 100 μL per well of PBSA containing a 1:10,000 dilution of goat anti-mouse IgG polyclonal antibody, specific for the Fc portion of Mouse IgG and conjugated to horseradish peroxidase (Jackson Immuno Research), was added to the plate for 30 minutes at ambient temperature. After washing the plate extensively with PBST, 100 μL per well TMB substrate (Thermo Fisher) was added to the wells for 15 minutes. The enzymatic reaction was stopped by adding 100 μL/well 2M sulfuric acid. The absorbance of this colorimetric assay was measured at 450 nm using a Victor plate reader (Perkin Elmer). In this assay a signal above background was indicative of cross-reactivity.

[5] = target: T1, human CD324 on cells (MCF7, BR22, NTX …); assay: cell-based or functional assay; remark: listed apart in the source
[6] = target: T3, human CD324-His recombinant protein …; assay: SPR (Biacore), concentration series 25, 12.5 and 6.25 nM, 1:1 Langmuir binding model; murine parent antibody
[7] = target: T1, human CD324 on cells (MCF7, BR22, NTX …); assay: cell-based or functional assay; remark: listed apart in the source
[8] = target: T1, human CD324 on cells (MCF7, BR22, NTX …); assay: cell-based or functional assay; remark: listed apart in the source

| Binder | Normalized RLU at 10pM (MCF7, Fab-saporin) [1] | Normalized RLU at 100pM (MCF7, Fab-saporin) [1] | EC50 (MCF7, Fab-saporin killing) [2] [pM] | EC50 (read off the curve) [3] [pM] | binding result [4] | Percent live cells remaining at 10pM (MCF7, Fab-saporin) [5] [%] | Kd [6] [pM] | EC50 (MCF7, Fab-saporin killing) [7] [pM] | EC50 of killing of MCF7 cells, Fab-saporin assay [8] [pM] |
| --- | --- | --- | --- | --- | --- | --- | --- | --- | --- |
| B1 | 64.8 | 34 | – | – | – | – | – | – | – |
| B2 | 102 | 106 | – | – | – | – | – | – | – |
| B3 | 37.2 | 19.4 | 0.71 | ~0.6 | – | – | – | – | – |
| B4 | 91.5 | 90.3 | – | – | – | – | – | – | – |
| B5 | 101 | 98.8 | – | – | no binding | 101 | – | – | – |
| B6 | – | – | 0.13 | – | no binding | 32 | 2000 | 1.22 | 1.2 |
| B7 | 40.7 | 21.2 | – | – | – | – | – | – | – |
| B8 | 68 | 38.1 | 3.1 | – | – | 68 | – | – | – |
